B1: PTS system mannose-specific EIIAB component, P69797 (parent)
chain: MTIAIVIGTHGWAAEQLLKTAEMLLGEQENVGWIDFVPGENAETLIEKYNAQLAKLDTTKGVLFLVDTWGGSPFNAASRIVVDKEHYEVIAGVNIPMLVETLMARDDDPSFDELVALAVETGREGVKALKAKPVEKAAPAPAAAAPKAAPTPAKPMGPNDYMVIGLARIDDRLIHGQVATRWTKETNVSRIIVVSDEVAADTVRKTLLTQVAPPGVTAHVVDVAKMIRVYNNPKYAGERVMLLFTNPTDVERLVEGGVKITSVNVGGMAFRQGKTQVNNAVSVDEKDIEAFKKLNARGIELEVRKVSTDPKLKMMDLISKIDK

This series covers variants of B1. The settings on record: Escherichia coli (strain K12); pH 7.4; 22 °C; GdnHCl; Fluorescence; Sodium phosphate 20 mM; reversible: yes; structure 1PDO; whole UniProt chain shown.

In the case of MTIAIVIGTHGWAAEQLLKTAEMLLGEQENVGFIDFVPGENAETLIEKYNAQLAKLDTTKGVLFLVDTFGGSPFNAASRIVVDKEHYEVIAGVNIPMLVETLMARDDDPSFDELVALAVETGREGVKALKAKPVEKAAPAPAAAAPKAAPTPAKPMGPNDYMVIGLARIDDRLIHGQVATRWTKETNVSRIIVVSDEVAADTVRKTLLTQVAPPGVTAHVVDVAKMIRVYNNPKYAGERVMLLFTNPTDVERLVEGGVKITSVNVGGMAFRQGKTQVNNAVSVDEKDIEAFKKLNARGIELEVRKVSTDPKLKMMDLISKIDK [W33F W69F], the “denaturant midpoint (higher = more stable)” value (from here on “denaturant midpoint”) turned out to be 1.8 M and the unfolding free energy was determined as 5.26 kcal/mol.

MTIAIVIGTHGWAAEQLLKTAEMLLGEQENVGWIDFVPGENAETLIEKYNAQLAKLDTTKGVLFLVDTFGGSPFNAASRIVVDKEHYEVIAGVNIPMLVETLMARDDDPSFDELVALAVETGREGVKALKAKPVEKAAPAPAAAAPKAAPTPAKPMGPNDYMVIGLARIDDRLIHGQVATRWTKETNVSRIIVVSDEVAADTVRKTLLTQVAPPGVTAHVVDVAKMIRVYNNPKYAGERVMLLFTNPTDVERLVEGGVKITSVNVGGMAFRQGKTQVNNAVSVDEKDIEAFKKLNARGIELEVRKVSTDPKLKMMDLISKIDK [W69F]: the “denaturant midpoint” value was 2.1 M and the unfolding free energy was 6.22 kcal/mol.

On to MTIAIVIGTHGFAAEQLLKTAEMLLGEQENVGWIDFVPGENAETLIEKYNAQLAKLDTTKGVLFLVDTFGGSPFNAASRIVVDKEHYEVIAGVNIPMLVETLMARDDDPSFDELVALAVETGREGVKALKAKPVEKAAPAPAAAAPKAAPTPAKPMGPNDYMVIGLARIDDRLIHGQVATRWTKETNVSRIIVVSDEVAADTVRKTLLTQVAPPGVTAHVVDVAKMIRVYNNPKYAGERVMLLFTNPTDVERLVEGGVKITSVNVGGMAFRQGKTQVNNAVSVDEKDIEAFKKLNARGIELEVRKVSTDPKLKMMDLISKIDK [W12F W69F], for which the “denaturant midpoint” value was determined as 2.1 M and the unfolding free energy is 11 kcal/mol.

Regarding MTIAIVIGTHGWAAEQLLKTAEMLLGEQENVGFIDFVPGENAETLIEKYNAQLAKLDTTKGVLFLVDTWGGSPFNAASRIVVDKEHYEVIAGVNIPMLVETLMARDDDPSFDELVALAVETGREGVKALKAKPVEKAAPAPAAAAPKAAPTPAKPMGPNDYMVIGLARIDDRLIHGQVATRWTKETNVSRIIVVSDEVAADTVRKTLLTQVAPPGVTAHVVDVAKMIRVYNNPKYAGERVMLLFTNPTDVERLVEGGVKITSVNVGGMAFRQGKTQVNNAVSVDEKDIEAFKKLNARGIELEVRKVSTDPKLKMMDLISKIDK [W33F], the “denaturant midpoint” value amounted to 2.2 M and the unfolding free energy is 8.37 kcal/mol.

On to MTIAIVIGTHGFAAEQLLKTAEMLLGEQENVGWIDFVPGENAETLIEKYNAQLAKLDTTKGVLFLVDTWGGSPFNAASRIVVDKEHYEVIAGVNIPMLVETLMARDDDPSFDELVALAVETGREGVKALKAKPVEKAAPAPAAAAPKAAPTPAKPMGPNDYMVIGLARIDDRLIHGQVATRWTKETNVSRIIVVSDEVAADTVRKTLLTQVAPPGVTAHVVDVAKMIRVYNNPKYAGERVMLLFTNPTDVERLVEGGVKITSVNVGGMAFRQGKTQVNNAVSVDEKDIEAFKKLNARGIELEVRKVSTDPKLKMMDLISKIDK [W12F], for which the “denaturant midpoint” value was determined as 2.6 M and the unfolding free energy was found to be 14.1 kcal/mol.

Turning to MTIAIVIGTHGFAAEQLLKTAEMLLGEQENVGFIDFVPGENAETLIEKYNAQLAKLDTTKGVLFLVDTWGGSPFNAASRIVVDKEHYEVIAGVNIPMLVETLMARDDDPSFDELVALAVETGREGVKALKAKPVEKAAPAPAAAAPKAAPTPAKPMGPNDYMVIGLARIDDRLIHGQVATRWTKETNVSRIIVVSDEVAADTVRKTLLTQVAPPGVTAHVVDVAKMIRVYNNPKYAGERVMLLFTNPTDVERLVEGGVKITSVNVGGMAFRQGKTQVNNAVSVDEKDIEAFKKLNARGIELEVRKVSTDPKLKMMDLISKIDK [W12F W33F], the “denaturant midpoint” value turned out to be 2.2 M and the unfolding free energy stood at 10.8 kcal/mol.

(Values after FireProtDB (doi:10.1110/ps.8.7.1530).)
